Ki data for six molecules are collected here from patent publication US20260193293A1, “PEPTIDES CAPABLE OF INHIBITING PROTEIN-PROTEIN INTERACTIONS AT GABAB1A SUBUNIT AND USES THEREOF” (UNIVERSITY OF COPENHAGEN, priority 2022, published 2026).

Non-standard residues stand in square brackets, D forms with d. NMeW = CN[C@@H](Cc1c[nH]c2ccccc12)C(=O)O; NMeD = CN[C@@H](CC(=O)O)C(=O)O; NMeV = CN[C@H](C(=O)O)C(C)C; NMeA = CN[C@@H](C)C(=O)O; Sar = CNCC(=O)O

One may read the Ki as the equilibrium dissociation constant of an inhibitor or competing ligand from its target.

Sequences and labels used below:
B1: EDDSDVWW(N-Me-G)GADTD (peptide)
peptide: Ac-EDDSDVWW[Sar]GADTD-NH2
SMILES: CC(=O)N[C@@H](CCC(=O)O)C(=O)N[C@@H](CC(=O)O)C(=O)N[C@@H](CC(=O)O)C(=O)N[C@@H](CO)C(=O)N[C@@H](CC(=O)O)C(=O)N[C@H](C(=O)N[C@@H](Cc1c[nH]c2ccccc12)C(=O)N[C@@H](Cc1c[nH]c2ccccc12)C(=O)N(C)CC(=O)NCC(=O)N[C@@H](C)C(=O)N[C@@H](CC(=O)O)C(=O)N[C@H](C(=O)N[C@@H](CC(=O)O)C(N)=O)[C@@H](C)O)C(C)C
B2: EDDSD(N-Me-V)WWGGADTD (peptide)
peptide: Ac-EDDSD[NMeV]WWGGADTD-NH2
SMILES: CC(=O)N[C@@H](CCC(=O)O)C(=O)N[C@@H](CC(=O)O)C(=O)N[C@@H](CC(=O)O)C(=O)N[C@@H](CO)C(=O)N[C@@H](CC(=O)O)C(=O)N(C)[C@H](C(=O)N[C@@H](Cc1c[nH]c2ccccc12)C(=O)N[C@@H](Cc1c[nH]c2ccccc12)C(=O)NCC(=O)NCC(=O)N[C@@H](C)C(=O)N[C@@H](CC(=O)O)C(=O)N[C@H](C(=O)N[C@@H](CC(=O)O)C(N)=O)[C@@H](C)O)C(C)C
B3: EDDSDVW(N-Me-W)GGADTD (peptide)
peptide: Ac-EDDSDVW[NMeW]GGADTD-NH2
SMILES: CC(=O)N[C@@H](CCC(=O)O)C(=O)N[C@@H](CC(=O)O)C(=O)N[C@@H](CC(=O)O)C(=O)N[C@@H](CO)C(=O)N[C@@H](CC(=O)O)C(=O)N[C@H](C(=O)N[C@@H](Cc1c[nH]c2ccccc12)C(=O)N(C)[C@@H](Cc1c[nH]c2ccccc12)C(=O)NCC(=O)NCC(=O)N[C@@H](C)C(=O)N[C@@H](CC(=O)O)C(=O)N[C@H](C(=O)N[C@@H](CC(=O)O)C(N)=O)[C@@H](C)O)C(C)C
B4: …(N-Me-D)TD (peptide)
peptide: Ac-EDDSDVWWGGA[NMeD]TD-NH2
SMILES: CC(=O)N[C@@H](CCC(=O)O)C(=O)N[C@@H](CC(=O)O)C(=O)N[C@@H](CC(=O)O)C(=O)N[C@@H](CO)C(=O)N[C@@H](CC(=O)O)C(=O)N[C@H](C(=O)N[C@@H](Cc1c[nH]c2ccccc12)C(=O)N[C@@H](Cc1c[nH]c2ccccc12)C(=O)NCC(=O)NCC(=O)N[C@@H](C)C(=O)N(C)[C@@H](CC(=O)O)C(=O)N[C@H](C(=O)N[C@@H](CC(=O)O)C(N)=O)[C@@H](C)O)C(C)C
B5: EDDSDV(N-Me-W)WGGADTD (peptide)
peptide: Ac-EDDSDV[NMeW]WGGADTD-NH2
SMILES: CC(=O)N[C@@H](CCC(=O)O)C(=O)N[C@@H](CC(=O)O)C(=O)N[C@@H](CC(=O)O)C(=O)N[C@@H](CO)C(=O)N[C@@H](CC(=O)O)C(=O)N[C@H](C(=O)N(C)[C@@H](Cc1c[nH]c2ccccc12)C(=O)N[C@@H](Cc1c[nH]c2ccccc12)C(=O)NCC(=O)NCC(=O)N[C@@H](C)C(=O)N[C@@H](CC(=O)O)C(=O)N[C@H](C(=O)N[C@@H](CC(=O)O)C(N)=O)[C@@H](C)O)C(C)C
B6: …(N-Me-A)DTD (peptide)
peptide: Ac-EDDSDVWWGG[NMeA]DTD-NH2
SMILES: CC(=O)N[C@@H](CCC(=O)O)C(=O)N[C@@H](CC(=O)O)C(=O)N[C@@H](CC(=O)O)C(=O)N[C@@H](CO)C(=O)N[C@@H](CC(=O)O)C(=O)N[C@H](C(=O)N[C@@H](Cc1c[nH]c2ccccc12)C(=O)N[C@@H](Cc1c[nH]c2ccccc12)C(=O)NCC(=O)NCC(=O)N(C)[C@@H](C)C(=O)N[C@@H](CC(=O)O)C(=O)N[C@H](C(=O)N[C@@H](CC(=O)O)C(N)=O)[C@@H](C)O)C(C)C

The target of the assay is Sushi domains (SD1/2) protein of the GABAB1a (GB1a) subunit, recombinant. In words: FP competition.
Chain of Sushi domains (SD1/2) protein of the GABAB1a (GB1a) subunit, recombinant (Q9Z0U4 29-158): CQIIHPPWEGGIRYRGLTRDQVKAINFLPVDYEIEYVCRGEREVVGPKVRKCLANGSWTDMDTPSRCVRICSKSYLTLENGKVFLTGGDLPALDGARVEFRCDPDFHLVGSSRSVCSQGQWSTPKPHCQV
In the case of B1, the Ki was determined as 18.9 µM. The value for B2 was 12.3 µM; that for B3 was 1.38 µM. The value for B4 was 0.403 µM; that for B5 was 85.6 µM; that for B6 was 0.704 µM.
